Assay results: the supplement of paper PMC7125110
± gives the standard error. This sample holds only a part of the variants without activity.

B1: glmS ribozyme (parent)
chain: AUAAAAGCGCCAGAACUACAGAAAUGUAGUUGACGAGGAGGAGGUUUAUCGAAUUUUCGGCGGAUGCCUCCAAA

Experiments:
Details in all cases: with glucosamine-6-phosphate
glucosamine-6-phosphate [1] = variants of: B1; experiment: self-cleavage kobs at 40 uM GlcN6P; higher = faster cleavage; RNA array
In short: (§1)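 Barcoded ribozyme variants on sequenced MiSeq chips were transcribed in situ by E. coli RNA polymerase and followed at 37 °C through a hybridised Cy3 probe. Glucosamine-6-phosphate at 40 μM to 10 mM in HEPES/KCl/Mg(OAc)2 buffer was flowed in, and tiles were imaged over ~14 h. Signals were normalised to baseline and to non-cleaving reference variants, and per-tile medians were fit to one- or two-exponential decays to give kobs. Weighted Michaelis–Menten fits across concentrations gave kcat and KM.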

glucosamine-6-phosphate [2] = variants of: B1; experiment: self-cleavage kobs at 160 uM GlcN6P; higher = faster cleavage; RNA array
In short: as §1

glucosamine-6-phosphate [3] = variants of: B1; experiment: self-cleavage kobs at 640 uM GlcN6P; higher = faster cleavage; RNA array
In short: as §1

glucosamine-6-phosphate [4] = variants of: B1; experiment: self-cleavage kobs at 10000 uM GlcN6P; higher = faster cleavage; RNA array
In short: as §1

glucosamine-6-phosphate [5] = variants of: B1; experiment: self-cleavage kobs at 2500 uM GlcN6P; higher = faster cleavage; RNA array
In short: as §1

Variant	self-cleavage kobs at 40 uM GlcN6P (glucosamine-6-phosphate [1]) [s⁻¹]	self-cleavage kobs at 160 uM GlcN6P (glucosamine-6-phosphate [2]) [s⁻¹]	self-cleavage kobs at 640 uM GlcN6P (glucosamine-6-phosphate [3]) [s⁻¹]	self-cleavage kobs at 10000 uM GlcN6P (glucosamine-6-phosphate [4]) [s⁻¹]	self-cleavage kobs at 2500 uM GlcN6P (glucosamine-6-phosphate [5]) [s⁻¹]
U31A C67A	0.000109 ± 1.4e-05	0.000473 ± 8.4e-05	0.000764 ± 0.00012	0.00388 ± 0.00061	–
C16G U31C U45C	< 1e-05	–	–	–	–
U30C U45G	< 1e-05	< 1e-05	–	–	–
G29U G41A C71G	< 1e-05	–	–	–	–
C16U G29C G37A G44A	< 1e-05	–	–	–	–
C16U U49C	< 1e-05	< 1e-05	< 1e-05	–	< 1e-05
C16U C34A	< 1e-05	–	–	–	–
U31G A39G	0.0004 ± 6e-05	0.00122 ± 0.00027	0.00522 ± 0.0013	–	0.0142 ± 0.0046
G29U U46G C58G C67A	4.15e-05 ± 1.9e-05	–	–	5.63e-05 ± 1.4e-05	–
U31G C34U	< 1e-05	< 1e-05	< 1e-05	< 1e-05	–
G29A A39U U69A	< 1e-05	–	–	–	–
U31C G51A	< 1e-05	–	< 1e-05	< 1e-05	< 1e-05
G29C C70U	8.66e-05 ± 9.8e-06	0.000143 ± 1.8e-05	0.000243 ± 2.2e-05	0.000815 ± 0.00013	0.00103 ± 0.00018
C16U C50U	< 1e-05	–	–	0.000106 ± 2e-05	5.3e-05 ± 1.3e-05
U31G A42C C70U	< 1e-05	–	–	–	–
U31G A42G	0.00033 ± 8.8e-05	–	0.00343 ± 0.0011	0.0263 ± 0.0086	0.00724 ± 0.0018
U30G G44U	< 1e-05	< 1e-05	–	4.23e-05 ± 1.3e-05	–
U30C G40A A52G U55C C61G	< 1e-05	–	–	< 1e-05	–
C16G G41C C68G	< 1e-05	–	–	< 1e-05	–
C16U G38A	< 1e-05	< 1e-05	< 1e-05	–	< 1e-05
U31G G44U C61U	< 1e-05	–	–	< 1e-05	–
U31C A48G	< 1e-05	< 1e-05	–	–	–
C16U U30A U31G A53U G59U	< 1e-05	–	–	–	< 1e-05
G29C U30C A33C A42G U55A U56A	< 1e-05	–	–	< 1e-05	–

Variant	self-cleavage kobs at 40 uM GlcN6P (glucosamine-6-phosphate [1]) [s⁻¹]	self-cleavage kobs at 160 uM GlcN6P (glucosamine-6-phosphate [2]) [s⁻¹]	self-cleavage kobs at 640 uM GlcN6P (glucosamine-6-phosphate [3]) [s⁻¹]	self-cleavage kobs at 10000 uM GlcN6P (glucosamine-6-phosphate [4]) [s⁻¹]	self-cleavage kobs at 2500 uM GlcN6P (glucosamine-6-phosphate [5]) [s⁻¹]
U31A C61U	< 1e-05	< 1e-05	< 1e-05	–	–
U31A A42G G51A C70G	< 1e-05	–	–	< 1e-05	–
G32C G35U	< 1e-05	< 1e-05	< 1e-05	< 1e-05	< 1e-05
U31C U49A A64U	< 1e-05	–	–	< 1e-05	–
G29A G43C	< 1e-05	< 1e-05	< 1e-05	< 1e-05	–
C16U G40A G62A U69A	< 1e-05	–	–	–	–
G29U G35U A36G	< 1e-05	–	–	–	–
U30A C34U C68G	0.000169 ± 6.6e-05	–	0.000629 ± 0.00024	0.000202 ± 6.3e-05	–
G29U A42G U56C G63A	< 1e-05	–	–	< 1e-05	–
G29U A42U	< 1e-05	–	< 1e-05	2.15e-05 ± 1.1e-05	–
C16U G41A G59U	< 1e-05	–	< 1e-05	< 1e-05	< 1e-05
U30A U54G	0.000119 ± 2.1e-05	–	–	0.00479 ± 0.00078	–
U31G G43A C61A C68A	< 1e-05	< 1e-05	< 1e-05	–	< 1e-05
C16U A33G	< 1e-05	–	–	< 1e-05	–
G29U U30G C34U	< 1e-05	–	–	< 1e-05	–
U31A U46A C61U C70U	< 1e-05	–	–	–	–
U31A U69C	0.000182 ± 6.5e-05	0.000243 ± 4.5e-05	0.000515 ± 0.00012	0.0039 ± 0.0012	–
U30A G44A	< 1e-05	< 1e-05	–	4.03e-05 ± 8.7e-06	–
U30A G59A G63A	< 1e-05	–	–	–	–
G29U G40A U45A	5.2e-05 ± 1.6e-05	–	0.00011 ± 2.8e-05	0.000439 ± 0.00011	0.000444 ± 8.6e-05
U30G A48G C71U	< 1e-05	–	< 1e-05	–	–
U31G C50G	6.22e-05 ± 1.5e-05	0.000172 ± 3e-05	0.000175 ± 4.5e-05	3.31e-05 ± 1.1e-05	0.00013 ± 1.9e-05
U31G A53G	0.000276 ± 4.7e-05	0.000661 ± 0.00018	–	0.02 ± 0.0035	0.00382 ± 0.00096
U30G G62U	< 1e-05	–	< 1e-05	< 1e-05	–
